Experimental data reported in doi:10.1101/2023.09.27.559698.

Columns and labels:
53BP1 GAR(3K)-Tudor = 53BP1 GAR(3K)-Tudor (Homo sapiens, UniProt Q12888 1288-1659, R1396K;R1398K;R1401K); experiment: SPR
53BP1 GAR-Tudor = 53BP1 GAR-Tudor (Homo sapiens, UniProt Q12888 1288-1659); experiment: SPR
53BP1 GAR-Tudor, sequence (Q12888 1288-1659): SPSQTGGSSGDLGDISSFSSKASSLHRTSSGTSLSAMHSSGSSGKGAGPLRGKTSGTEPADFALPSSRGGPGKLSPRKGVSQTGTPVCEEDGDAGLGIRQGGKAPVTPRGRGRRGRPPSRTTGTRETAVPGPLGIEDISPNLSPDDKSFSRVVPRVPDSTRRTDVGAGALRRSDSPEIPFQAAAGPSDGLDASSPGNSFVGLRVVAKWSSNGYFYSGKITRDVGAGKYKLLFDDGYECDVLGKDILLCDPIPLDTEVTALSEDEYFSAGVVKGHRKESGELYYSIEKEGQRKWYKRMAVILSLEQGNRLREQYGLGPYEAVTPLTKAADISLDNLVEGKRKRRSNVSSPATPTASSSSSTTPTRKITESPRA

53BP1 GAR(3K)-Tudor, sequence (Q12888 1288-1659 R1396K/R1398K/R1401K): as the sequence (Q12888 1288-1659) above, with R109K, R111K, R114K counted along it

Question: Does GCUGCGGUGUGGAAGGAGUGGUCGGGUUGCGCAGCG (structured_RNA) [SC1 RNA, biotinylated] bind (53BP1 GAR(3K)-Tudor)?
Answer: Result: no binding

Question: And the Kd (53BP1 GAR-Tudor)?
Answer: Its Kd is about 8 nM.
